Measured values: patent publication US8329865B2, “Antimicrobially active peptides” (priority 2001, dated 2012)

Columns and labels:
[1] = test system: human erythrocytes; experiment: Hemolytic assay; assay type: cell-based; details: 100 μg/ml
Description: Hemolytic assay. The hemolytic activity of DCD peptides was determined on fresh human erythrocytes, which were separated from human EDTA blood using a Ficoll gradient. Isolated erythrocytes were washed three times in 5 ml of PBS (50 mM sodium phosphate buffer, 150 mM NaCl [pH 7.0]) and centrifuged at 1,000×g for 6 min at room temperature. The pellets were resuspended in PBS and further diluted to a concentration of 10^9 human erythrocytes/ml. Hemolytic activity was determined as follows. To the human erythrocyte solution (50 μl), PBS (1 ml) was added, followed by different concentrations of the peptides. The suspension was incubated for 30 min at 37° C. and then centrifuged at 1,000×g for 6 min at 4° C. The supernatant was monitored at 415 nm by using a spectrophotometer (Bio-Rad, Munich, Germany). The hemolytic activity of each peptide was expressed as the percentage of the total hemoglobin release compared to the release after incubation with Millipore water.

[2] = CF release assay with unilamellar liposomes; details: even after the addition of 10 μM peptide; relative to Triton X-100
Description: FIG. 9. Effect of DCD-derived peptides on membrane permeability. (A) Outer membrane permeability measured by peptide-mediated NPN uptake in E. coli ML-35p. E. coli cells were incubated with 10 μM NPN in the presence of various concentrations of DCD peptides in 5 mM sodium HEPES buffer (pH 7.4). Enhanced uptake due to membrane permeability was measured by an increase in fluorescence intensity (Ex350 and Em460) caused by partition of NPN into the hydrophobic interior of the outer membrane. At time point 0 min, intact E. coli ML-35p cells were added to the peptides. The results are expressed as NPN uptake factor of fluorescence in arbitrary units. All analyses were performed in triplicates. (B) Inner membrane permeability measured as the influx of ONPG in E. coli ML-35p after the addition of DCD peptides. […] The release of ONP by cytoplasmic β-galactosidase was spectrophotometrically monitored at 420 nm. […] All samples were analyzed in triplicates. […] Release was determined 4 min after peptide addition at concentrations of 1 to 10 μM. […] Reaction progress was expressed as the percentage of CF released relative to the total fluorescence released after the addition of Triton X-100 solution at the end of each experiment.
Preparation of liposomes and CF release assay. […] The liposome concentration was determined by phosphorous analysis (Rouser, G. et al. 1970 Lipids 5:494-496). […]

[3] = CD spectroscopy, secondary structure; assay type: physicochemical
Description: CD) spectroscopy. Circular dichroism (CD) measurements were performed with a Jasco J-720 CD spectrapolarimeter (Jasco, Tokyo, Japan) to determine the secondary structure of DCD-derived peptides. The data are reported as the average of three to four scans at 50 nm/min with a 1-nm step resolution. The CD spectra of the peptides (50 μM) in 10 mM sodium phosphate buffer (pH 7.0) with different amounts of NaCl (10, 100, and 150 mM) in 0 to 60% (vol/vol) trifluoroethanol (TFE) and in the presence of artificial phospholipid vesicles such as DOPC and DOPC-DOPG (1:1 molar ratio) were recorded at room temperature in the 180- to 260-nm wavelength range. The data are reported as the mean residue ellipticity in units of degrees cm^2 dmol^−1 and plotted versus wavelength. The secondary structural predictions for peptides were carried out by Jasco secondary structure software.

[4] = test system: Escherichia coli, Staphylococcus aureus, Enterococcus faecalis and Candida albicans; experiment: CFU test (colony-forming units), Example 4; assay type: cell-based; details: sodium phosphate buffer, 37° C., 3 h, 4 h or overnight
Description: The antimicrobial effect of said peptides was carried out by a CFU test (test for colony-forming units) as described for the defensins by Valore et al., “Human Beta-Defensin-1: An Antimicrobial Peptide of Urogenital Tissues”, J Clin Invest 101, 1633-1642 (1998).
The test of the novel peptides was carried out with Escherichia coli, Staphylococcus aureus, Enterococcus faecalis and Candida albicans. E. coli was incubated in LB medium, E. faecalis and S. aureus in Columbia medium (Difko, BD Heidelberg) and C. albicans in casein hydrolysate medium (Merck, Darmstadt). The amounts of bacteria and yeasts were determined by photometry. The bacterial strains were incubated to an optical density of […] at 600 nm and the yeast was incubated to an optical density of 0.4-0.6 at 450 nm. The amount of the organisms was determined by plating various dilutions as follows: an OD of 1 at 600 nm is equivalent to 8.2×10^9/ml for E. coli, 1.9×10^10/ml for S. aureus and 9.0×10^9/ml for E. faecalis, and an OD of 1 at […] is equivalent to 1.4×10^8/ml for C. albicans.
The cells were washed twice with 10 mM sodium phosphate buffer (pH 7.4) and diluted to 2-3×10^7 cells/ml (E. coli, E. faecalis), 5.7×10^7 cells/ml (S. aureus) or 5×10^5 cells/ml (C. albicans) in phosphate buffer.
The cells were incubated with various amounts of the peptides in 200 μl of sodium phosphate buffer at 37° C. for 3 h, 4 h or overnight (21-24 h). The cells were diluted 1:10 to 1:100 for the bacteria and 1:500 to 1:5000 for the yeast, and 50 μl, 100 μl and 200 μl were plated on appropriate agar plates. The plates were incubated at 37° C. overnight, and the number of colonies was counted. The antimicrobial effect of the peptides has been stated as percentage of killed cells: [1−(cell survival after incubation with the peptide)/(cell survival after control incubation)]×100.

[5] = DOPC-DOPG (1:1 molar ratio) liposomes

## CC[C@H](C)[C@H](NC(=O)[C@H](CCCCN)NC(=O)[C@H](CCC(=O)O)NC(=O)[C@H](CCCCN)NC(=O)[C@H](CO)NC(=O)[C@H](CCCCN)NC(=O)[C@H](CCCNC(=N)N)NC(=O)[C@H](Cc1ccccc1)NC(=O)[C@H](Cc1ccccc1)NC(=O)[C@H](CC(=O)O)NC(=O)CNC(=O)[C@H](CC(C)C)NC(=O)[C@@H](N)CC(C)C)C(=O)NCC(=O)N[C@@H](CCCCN)C(=O)N[C@@H](CCC(=O)O)C(=O)N[C@@H](Cc1ccccc1)C(=O)N[C@@H](CCCCN)C(=O)N[C@@H](CCCNC(=N)N)C(=O)N[C@H](C(=O)N[C@H](C(=O)N[C@@H](CCC(N)=O)C(=O)N[C@@H](CCCNC(=N)N)C(=O)N[C@H](C(=O)N[C@@H](CCCCN)C(=O)N[C@@H](CC(=O)O)C(=O)N[C@@H](Cc1ccccc1)C(=O)N[C@@H](CC(C)C)C(=O)N[C@@H](CCCNC(=N)N)C(=O)N[C@@H](CC(N)=O)C(=O)N[C@@H](CC(C)C)C(=O)N[C@H](C(=O)N1CCC[C@H]1C(=O)N[C@@H](CCCNC(=N)N)C(=O)N[C@H](C(=O)N[C@@H](CCC(=O)O)C(=O)N[C@@H](CO)C(=O)O)[C@@H](C)O)C(C)C)[C@@H](C)CC)C(C)C)[C@@H](C)CC [LL-37]
[1]
  hemolytic activity: up to 2.5%

## DPYAEAASGPNPGSKSHESAQAENCGADPE [DPI, negative control peptide, unrelated scrambled peptide]
[2]
  CF leakage from liposomes made of DOPC and DOPC-DOPG: ≤ 2%
[3]; 10 mM NaP
  Secondary structure, Random coil: 54.8%
  Secondary structure, Turn: 19.4%
  Secondary structure, α-Helix: 0.0%
  Secondary structure, β-Sheet: 25.8%
[3]; 60% TFE
  Secondary structure, Random coil: 42.5%
  Secondary structure, Turn: 6.0%
  Secondary structure, α-Helix: 9.6%
  Secondary structure, β-Sheet: 42.0%
[3]; [5]
  Secondary structure, Random coil: 51.2%
  Secondary structure, Turn: 19.1%
  Secondary structure, α-Helix: 0.0%
  Secondary structure, β-Sheet: 29.7%
[3]; dH2O
  Secondary structure, Random coil: 50.3%
  Secondary structure, Turn: 15.4%
  Secondary structure, α-Helix: 0.0%
  Secondary structure, β-Sheet: 34.3%
[4]
  antimicrobial effect (percentage of killed cells): no appreciable antimicrobial effect
